Measured values from publication doi:10.1101/726224 (bioRxiv, 2019).

Biological target: Cyclin B1^165-433 (isolated) (UniProt P14635 165-433)
Test: SEC

Sequence of Cyclin B1^165-433 (isolated) (P14635 165-433): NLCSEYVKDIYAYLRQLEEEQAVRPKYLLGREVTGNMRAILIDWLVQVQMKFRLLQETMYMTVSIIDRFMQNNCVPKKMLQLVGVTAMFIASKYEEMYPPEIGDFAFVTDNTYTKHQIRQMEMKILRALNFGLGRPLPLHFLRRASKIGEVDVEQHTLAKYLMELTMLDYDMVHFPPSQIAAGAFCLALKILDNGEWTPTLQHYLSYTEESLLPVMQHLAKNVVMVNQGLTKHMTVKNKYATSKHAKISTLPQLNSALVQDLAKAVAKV

- binding result: binds
B1: MBP-MAD1^41-62 (domain or fragment)
chain: LQMQYQQSMQLEERAEQIRSKS
